# According to the RNAGym collection of RNA variant scans (doi:10.1073/pnas.2313332121):
# This sample holds only a part of the variants without activity.
# B1: TPR 5TU (parent)
# chain: GGAUCUUCUCGAUCUAACAAAAAAGACAAAUCUGCCACAAAGCUUGAGAGCAUCUUCGGAUGCAGAGGCGGCAGCCUUCGGUGGCGCGAUAGCGCCAACGUUCUCAACUAUGACACGCAAAACGCGUGCUCCGUUGAAUGGAGUUUAUCAUG
# Variants of: B1
# Assay: polymerase ribozyme fitness, log enrichment relative to wild type (log ratio); higher = more active; in vitro selection for triplet polymerase activity
# Method in brief: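 Mutant libraries for each subunit of a heterodimeric triplet polymerase ribozyme were made by PCR and then transcribed. Each library underwent one round of in vitro selection in triplicate: annealing with a biotinylated primer, the partner subunit and triplets, frozen incubation at −7 °C, gel excision of extended constructs, streptavidin-bead capture and RT-PCR. Input and output libraries were Illumina-sequenced, and only genotypes with ≥10 input reads and ≥1 read per output were kept. Fitness is the logarithm, base 2, of genotype enrichment over wild-type enrichment, computed from inverse-variance-weighted replicate averages.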
row,Variant,polymerase ribozyme fitness (log ratio)
1,C63G A98U C99U,0.639
2,G59C G86U,-1.67
3,G68C G86U A89U C96A A110U C114U,≤ -4.2
4,C69G C87A,≤ -4.2
5,G65A A89U G94U,-2.57
6,G59C U127A,-3.77
7,C63U A150U,0.854
8,G68A G84U C131G G143U,≤ -4.2
9,G59U G86U,-3.85
10,A60C C93A A98U A122C,-2.61
11,C63U C99U C116A,0.561
12,G62C G84A C125G G128A,≤ -4.2
13,G67U C79G,≤ -4.2
14,A60G C93U U104G G143C,-3.09
15,C63U A89G C93A,≤ -4.2
16,C69G C96U C103A,-3.44
17,G62U G136A,0.626
18,G65C C87G U102A,≤ -4.2
19,A60G C85U U144G,0.543
20,A60G G143U,-1.77
21,G62A A64C C85U C95G C105G A121U U134G U139G U151C,≤ -4.2
22,G67A G74C G94A A119G,≤ -4.2
23,A60G G67U C93G U102C,≤ -4.2
24,U61A C85A C96A A121G,≤ -4.2

row,Variant,polymerase ribozyme fitness (log ratio)
1,G59C G68C C118G,-4.15
2,U61A C69U A98U,-2.9
3,A60U G141U,0.392
4,A60C G65U C132A,-4.19
5,A66G G92C C105U,-4.03
6,A66G C96U,-3.66
7,A60C G92U,-0.296
8,A60G A110G G136A,-2.56
9,U61A A98U U134G G140U U145A,≤ -4.2
10,G68C C93U A113U,≤ -4.2
11,A60G G94U,-0.467
12,C63U A64G G83C,≤ -4.2
13,G65A C85U A137U U139A G140A G152A,-3.3
14,A60G G74A,-3.26
15,A60C U61A,-2.27
16,G59U C95U,-2.6
17,A60G C116A,1.26
18,G59C C95G C103U G126A,-2.28
19,G68A U130C,-3.95
20,C69A C93U U102G A113U G117U U146A C149U,≤ -4.2
21,C63U C79G A91G A107G,≤ -4.2
22,G62A C75U,-0.822
23,A60G A91G,-2.73
24,G65A A113G,-3.91

row,Variant,polymerase ribozyme fitness (log ratio)
1,A66U C93U,≤ -4.2
2,A60U C85A,-3.04
3,A60U C85U,-1.46
4,A60U C85G,-3.14
5,C63U C75A G84A C118G A120G,≤ -4.2
6,G68C A89C C96A A113G G124C U134C,≤ -4.2
7,A66G C85U G86U,≤ -4.2
8,C63A G83A U145C A150U,-0.965
9,A60C A120U A137C G140U,≤ -4.2
10,A60C A91U,≤ -4.2
11,G68A C75A U77A C95A A97G,≤ -4.2
12,G59U C69U G86A C95G A107U,≤ -4.2
13,A60G U61G C76A G124C C125G,≤ -4.2
14,G68A C93A C108A G143U,≤ -4.2
15,A66C G92A,≤ -4.2
16,U61A C63U C85G A119U C131A,≤ -4.2
17,A60U C131G,-3.54
18,U61A A107C G128U U139A,≤ -4.2
19,G62C G81A A91U A113U C125U,≤ -4.2
20,G62U U109C C116U C131U A147U,-1.94
21,A60G C114U,-1.83
22,U61G C93G A98U A138C,≤ -4.2
23,U61C G70A,-4.13
24,U61A C79A G83C,≤ -4.2

row,Variant,polymerase ribozyme fitness (log ratio)
1,G62C C76U U139G,-3.09
2,C69A A120C,-1.7
3,G59U A107U U127A,≤ -4.2
4,G59U C96U A121C G126A U146G,-2.76
5,G62A U82A,-0.432
6,A66G C85U,-3.45
7,C69G G83C,-4.05
8,A60U C87U U135C,-3.65
9,C69A C85U C123A,-2.37
10,A60G A66C G94U C108U C125U U139C,-4
11,C63U C69A G80A C85U G94C C99A,-3.32
12,U61G G83A,-1.01
13,G59C C96G C118G A142U,-3.61
14,G67U C118U,-2.87
15,G59U C93A,-3.58
16,A66U G88A U109A A122C,≤ -4.2
17,G62C C72A A91G A98G C123U,≤ -4.2
18,U61A U78G C95U A107C U148G A150U,≤ -4.2
19,G67A A73C C87G,≤ -4.2
20,U61G C93U G94A U144G,≤ -4.2
21,G59U A107C A121U,-3.86
22,U61A C76A C87U,-3.68
23,U61G C95G U135C,-4.17
24,A60G G68A U139A,≤ -4.2

row,Variant,polymerase ribozyme fitness (log ratio)
1,G59U A64G A89G A107C,≤ -4.2
2,A66G U78G U90C U135G,≤ -4.2
3,G68A G83U C118G G136U,≤ -4.2
4,A60U G67A A91G A137U,≤ -4.2
5,A60U C87U,-1.36
6,U61G G71U C87U G143A,≤ -4.2
7,G65C C85U,-4.04
8,G67A C99U A107U G143C,≤ -4.2
9,A60G G71A C75A C93U C118G,≤ -4.2
10,U61G C85A G143C,-3.43
11,A60G C85A U101G,-2.94
12,A66C C76U A91U A97U C114U A142G,≤ -4.2
13,A66C C103G C108A G117A,≤ -4.2
14,U61A A73G G94U,-3
15,A60U C85G G92C U102G,≤ -4.2
16,G67C U101A G141U A150U G152U,≤ -4.2
17,G68A G94C,-4.03
18,C69G G84U A89U A122C U146C,-2.82
19,A60C C85A G124C,-2.54
20,G59U G67A G92U,-3.83
21,C63U A73G,-0.225
22,G68A C87A A107G G117U C132G,≤ -4.2
23,G67U C85A C93U,≤ -4.2
24,G67U G81A C93G C105U,≤ -4.2

row,Variant,polymerase ribozyme fitness (log ratio)
1,U61C G67A G68C C79U A98G,≤ -4.2
2,G59U A60G C93U,-3.87
3,G62U A106C U146G C149U,-3.91
4,G67U C75A G92A G124U,≤ -4.2
5,A60C C99G U101G,≤ -4.2
6,A60G G94A C103A G140C,≤ -4.2
7,A60C G71C C93G G140A U151C,≤ -4.2
8,G62U C95A,-1.1
9,G62U C116U,0.138
10,G59U G94A C118U A150G,-1.69
11,C63U G68A G83C A115C U144C C149A,≤ -4.2
12,G65A C76A A122U,-4.06
13,G68A C96U,-3.68
14,A60C G84U,-2.22
15,A60C C76U C93U,-3.48
16,G67U G70C G86A C132G,≤ -4.2
17,A66C A91G A98U C131A U139A,≤ -4.2
18,G68C G83C,≤ -4.2
19,G62A G86A A122C,-1.02
20,C69A G70C A106G C131U A137C,≤ -4.2
21,U61G A91C C93U C114A G126A U135G,≤ -4.2
22,U61G G94A C108G,≤ -4.2
23,G68A C72A G80C G94A,≤ -4.2
24,U61A G117A,-0.98

row,Variant,polymerase ribozyme fitness (log ratio)
1,G67A C87A A98U,≤ -4.2
2,G59C U77A C96G C105U G140A,≤ -4.2
3,A60G C96U U101G G128A,-3.75
4,G62U U145G,-0.51
5,G68A C87G G128U,≤ -4.2
6,A64C G83C G141A,≤ -4.2
7,A60G A89C U104G C108G,≤ -4.2
8,A60C U101G,-1.58
9,G62A C76A C79A C96A,≤ -4.2
10,G68C C93U G140A A147G,≤ -4.2
11,A66U G86U C103A A142G,≤ -4.2
12,G59U A60U,-0.703
13,A66G C85A A91G U148A,≤ -4.2
14,U61A A73G C93U C125A,-3.14
15,C63U C85U,-0.275
16,G68A C75A G128A A150C,≤ -4.2
17,G62A G81U C95A G126U,0.493
18,C63U G70C C87G A89G C96A G126C,≤ -4.2
19,A60U U61A G86A C93A A110C G133A,≤ -4.2
20,G59U G68A C96U,≤ -4.2
21,U61G C116A,-0.386
22,G67A G86A,-3.58
23,G68U U134G,≤ -4.2
